Results: paper PMC4753561
“And” between values parts separate entries of the source, which are not always exact repeats. Equal entries are not always repeated. Where two headings read alike, the source gives them in different places.

Columns and labels:
[1] = target: Hepatitis B Virus core protein assembly domain (Cp149) dimer (Hepatitis B Virus); assay: resistive-pulse sensing
[2] = target: Hepatitis B Virus core protein assembly domain (Cp149) dimer (Hepatitis B Virus); assay: resistive-pulse sensing; remark: listed apart in the source
[3] = target: Hepatitis B Virus core protein assembly domain (Cp149) dimer (Hepatitis B Virus); assay: SEC

Substance: Hepatitis B Virus core protein assembly domain (Cp149) dimer (domain or fragment)
- stoichiometry N [1]: 90 subunit and 120 subunit
- pseudo-critical dimer concentration [2]: 0.5 µM
- stoichiometry N [2]: 105 dimers and 77 dimers
- pseudo-critical dimer concentration [3]: 0.5 µM
